Experimental data from PMC6687201, “Atg11 tethers Atg9 vesicles to initiate selective autophagy” (PLoS Biology, 2019).
Where a chain is given by its changes, count along the chain named. Names may count otherwise. Each block holds one binder with its values, some of them ahead of it.

Tests used:
[1] = biological target: T1, HA-tagged Atg9 (S. cerevisiae, UniProt Q12142 1-997); experiment: co-IP; competition: purified Atg17 (0, 1, 4 μM) added to lysates of nonstarved cells; IP of Atg11-myc, HA-Atg9 detected by blot; conditions: one partner purified
T1 construct: Atg9, transmembrane autophagy protein, yeast; also called HA-Atg9; source: yeast cells expressing HA-tagged Atg9, in lysate
T1 sequence (looked up): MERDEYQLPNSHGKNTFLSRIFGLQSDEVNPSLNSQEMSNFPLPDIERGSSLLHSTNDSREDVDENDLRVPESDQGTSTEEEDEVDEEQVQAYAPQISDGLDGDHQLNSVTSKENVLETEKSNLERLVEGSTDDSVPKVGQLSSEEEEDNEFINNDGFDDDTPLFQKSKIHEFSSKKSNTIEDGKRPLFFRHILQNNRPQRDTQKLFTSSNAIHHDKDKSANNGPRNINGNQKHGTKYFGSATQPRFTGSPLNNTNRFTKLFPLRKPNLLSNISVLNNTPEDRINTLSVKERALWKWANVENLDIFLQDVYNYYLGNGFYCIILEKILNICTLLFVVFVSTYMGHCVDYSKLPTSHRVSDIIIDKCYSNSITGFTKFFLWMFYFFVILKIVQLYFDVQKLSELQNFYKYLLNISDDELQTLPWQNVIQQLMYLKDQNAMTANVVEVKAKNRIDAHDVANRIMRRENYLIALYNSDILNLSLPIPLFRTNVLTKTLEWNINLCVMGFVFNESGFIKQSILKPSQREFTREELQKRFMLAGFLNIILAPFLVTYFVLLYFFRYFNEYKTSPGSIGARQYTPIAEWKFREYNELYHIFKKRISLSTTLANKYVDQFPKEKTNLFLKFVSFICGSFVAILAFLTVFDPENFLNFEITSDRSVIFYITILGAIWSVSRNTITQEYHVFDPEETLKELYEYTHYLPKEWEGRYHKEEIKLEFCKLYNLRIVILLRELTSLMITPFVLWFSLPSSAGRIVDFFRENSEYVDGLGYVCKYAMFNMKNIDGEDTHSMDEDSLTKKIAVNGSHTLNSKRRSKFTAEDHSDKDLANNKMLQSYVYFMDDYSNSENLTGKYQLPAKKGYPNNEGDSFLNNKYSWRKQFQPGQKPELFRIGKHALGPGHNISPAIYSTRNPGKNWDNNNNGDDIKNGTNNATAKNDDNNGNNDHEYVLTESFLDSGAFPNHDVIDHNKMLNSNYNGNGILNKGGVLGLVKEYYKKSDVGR

[2] = biological target: T2, Atg9^core reconstituted in proteoliposomes (yeast, UniProt Q12142 281-779); experiment: co-floatation with proteoliposomes; competition: Atg11 and Atg17 coincubated with Atg9-PLs at different stoichiometric ratios (Atg11 kept constant); floated fraction on SDS-PAGE, amounts from band intensities; conditions: both partners purified
T2 construct: Atg9 core, yeast; Liposomes: 20 mol% cholesterol, 10 mol% POPE, 60 mol% POPC, 10 mol% POPS; protein:lipid 1:200; also called Atg9-PLs; Atg9 vesicles; source: reconstituted in liposomes by rapid dilution
T2 sequence (looked up): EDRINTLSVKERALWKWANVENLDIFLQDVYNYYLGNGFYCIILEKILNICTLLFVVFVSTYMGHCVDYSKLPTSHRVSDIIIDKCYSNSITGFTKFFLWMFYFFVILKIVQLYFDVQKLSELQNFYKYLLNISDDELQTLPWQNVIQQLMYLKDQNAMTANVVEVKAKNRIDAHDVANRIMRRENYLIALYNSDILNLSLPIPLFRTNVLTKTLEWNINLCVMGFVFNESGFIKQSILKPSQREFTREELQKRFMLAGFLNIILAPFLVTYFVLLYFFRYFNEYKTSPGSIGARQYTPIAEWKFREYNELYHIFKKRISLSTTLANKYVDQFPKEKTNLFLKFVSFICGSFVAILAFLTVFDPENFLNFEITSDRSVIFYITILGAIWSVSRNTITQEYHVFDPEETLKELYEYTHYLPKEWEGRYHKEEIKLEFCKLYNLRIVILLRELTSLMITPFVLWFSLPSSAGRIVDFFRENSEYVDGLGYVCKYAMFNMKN

[3] = biological target: T2, Atg9^core reconstituted in …; experiment: cell-based or functional assay
[4] = biological target: T3, recombinant purified Atg11 (Atg11-His6) (yeast, UniProt Q12527 1-1178, Atto565 label in the GUV experiments); experiment: pull-down; 10 μg recombinant GST-tagged bait coupled to Glutathione-resin, with recombinant Atg11; SDS-PAGE; conditions: both partners purified
T3 construct: N-terminal residual glycine-proline from PreScission protease digestion; Atg11, yeast; expressed from pCoofy37-Atg11; measured molecular weight 136 kDa; also called His-tagged Atg11; Atg11^Atto565; source: E. coli BL21 (DE3), coexpressed with chaperones from pG-KJE8, purified (Ni-NTA, PreScission digestion, gel filtration); not shown: His6, C-terminal, kept
T3 sequence: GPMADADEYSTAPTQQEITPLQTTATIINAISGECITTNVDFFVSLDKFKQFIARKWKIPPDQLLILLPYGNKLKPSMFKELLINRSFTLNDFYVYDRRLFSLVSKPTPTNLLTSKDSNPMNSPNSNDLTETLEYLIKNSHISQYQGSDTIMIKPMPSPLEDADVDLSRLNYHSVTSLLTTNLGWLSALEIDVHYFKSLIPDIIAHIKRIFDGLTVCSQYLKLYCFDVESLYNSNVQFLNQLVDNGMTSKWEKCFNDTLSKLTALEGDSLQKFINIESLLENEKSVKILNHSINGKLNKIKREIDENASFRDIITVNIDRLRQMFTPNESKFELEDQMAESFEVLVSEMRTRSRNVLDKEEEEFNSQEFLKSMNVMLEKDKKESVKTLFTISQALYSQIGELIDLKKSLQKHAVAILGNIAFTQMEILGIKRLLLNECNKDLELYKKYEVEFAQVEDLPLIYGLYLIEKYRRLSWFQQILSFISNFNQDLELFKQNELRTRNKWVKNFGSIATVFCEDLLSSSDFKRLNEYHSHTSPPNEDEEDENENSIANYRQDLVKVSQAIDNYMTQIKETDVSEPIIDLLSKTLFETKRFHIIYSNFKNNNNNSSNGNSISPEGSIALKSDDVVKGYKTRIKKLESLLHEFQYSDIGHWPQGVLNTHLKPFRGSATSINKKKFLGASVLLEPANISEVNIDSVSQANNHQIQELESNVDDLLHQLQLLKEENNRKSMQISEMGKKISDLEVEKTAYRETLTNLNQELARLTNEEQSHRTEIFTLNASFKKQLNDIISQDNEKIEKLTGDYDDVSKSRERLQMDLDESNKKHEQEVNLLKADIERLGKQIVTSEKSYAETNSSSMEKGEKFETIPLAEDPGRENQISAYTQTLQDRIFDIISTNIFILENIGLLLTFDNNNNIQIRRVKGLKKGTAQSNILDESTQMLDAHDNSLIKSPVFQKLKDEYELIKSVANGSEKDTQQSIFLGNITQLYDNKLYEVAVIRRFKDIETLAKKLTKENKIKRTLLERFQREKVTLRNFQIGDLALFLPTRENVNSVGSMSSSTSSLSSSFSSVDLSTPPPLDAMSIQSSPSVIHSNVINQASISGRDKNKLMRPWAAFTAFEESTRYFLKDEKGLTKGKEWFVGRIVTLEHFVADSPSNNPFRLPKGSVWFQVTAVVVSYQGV

molar excess of Atg17 over Atg11 for equal binding to Atg9 [1]: 25 fold
molar excess of Atg17 over Atg11 for similar recovery of both [2]: 25 fold
hydrodynamic radius of Atg9 vesicles against control SUVs in the presence of Atg17 (dynamic light scattering; vesicle tethering) [3]: 2 fold
B1: recombinant purified Atg17 (natural protein, yeast, UniProt Q06410 1-417, looked up)
chain: MNEADVTKFVNNARKTLTDAQLLCSSANLRIVDIKKKLSSWQLSISKLNFLIVGLRQQGKFLYTILKEGIGTKLIQKQWNQAVLVVLVDEMKYWQYEITSKVQRLDGIVNELSISEKDDTDPSKLGDYISRDNVNLLNDKLKEVPVIERQIENIKLQYENMVRKVNKELIDTKLTDVTQKFQSKFGIDNLMETNVAEQFSRELTDLEKDLAEIMNSLTQHFDKTLLLQDKKIDNDEREELFKVVQGDDKELYNIFKTLHEVIDDVDKTILNLGQFLQAKIKEKTELHSEVSEIINDFNRNLEYLLIFKDISNLIDSFKNSCTQDIQTTKELCEFYDNFEESYGNLVLEAKRRKDVANRMKTILKDCEKQLQNLDAQDQEERQNFIAENGTYLPETIWPGKIDDFSSLYTLNYNVKNP
notes: Atg17, scaffolding protein of nonselective autophagy, yeast

binding result [4]: binds
B2: GST-tagged wild-type Atg29 (natural protein, yeast, UniProt Q12092 1-213, looked up)
chain: MIMNSTNTVVYIKVKGRRPQGFLDPPKFEWNGTKERQLWTMVSNLNYSQDQIDWQNLSKIFETPEFFLKKRTYKLFAEHLELLQLQLEKKRDLEKYSNDQVNEGMSDLIHKYTPTLQNDNLLNVSASPLTTERQDSEEVETEVTNEALQHLQTSKILNIHKKTSDSENKPNDKLDKDGINKEMECGSSDDDLSSSLSVSKSALEEALMDRLQF
notes: Atg29, yeast; also called GST-Atg29^WT; Atg29^WT

binding result [4]: binds
B3: GST-tagged phosphomimetic Atg29 (Atg29^SD) (natural protein, yeast, UniProt Q12092 1-213, looked up)
chain: B2 chain with S197D, S199D, S201D
notes: Atg29, yeast, phosphomimetic variant; also called GST-Atg29^SD; Atg29^(S197D, S199D, S201D); source: recombinant, purified

binding result [4]: binds
B4: GST-Atg31-Atg29^WT subcomplex (complex, yeast)
chain 1: MNVTVTVYDKNVKYRLEENIKNNKGPSNDDQPAYNNESKSTDGSDYAMFPTNIKYIFEDNNDELVDSSDAALTAGIDKVGDELENVIIVQLDESGSLEDITLISDQYELLSHRTNSLSLEENQMRTLSSHGDDKSNDEEEELSVDSDRFRVDSDIELDVISQFCDLSPFLRDLSLNDLIKLYVTQNEQLQMLSNSV
chain 2: B2 chain
notes: Atg31, yeast; Atg29, yeast; also called GST-tagged Atg31 (31) and Atg29^WT (29); source: recombinant, coexpressed and purified as subcomplex

binding result [4]: binds
B5: GST-Atg31-Atg29^SD subcomplex (complex, yeast)
chain 1: B4 chain 1
chain 2: B2 chain with S197D, S199D, S201D
notes: Atg31, yeast; Atg29, yeast, phosphomimetic variant; also called GST-tagged Atg31 (31) and Atg29^SD (29^SD); source: recombinant, coexpressed and purified as subcomplex
